According to PMC4041322, “Differences in the intrinsic immunogenicity and allergenicity of Bet v 1 and related food allergens revealed by site-directed mutagenesis” (Allergy, 2013):

Key:
rCor a 1.0401 (hazelnut) = experiment: SEC; high-performance size-exclusion chromatography (HPSEC) of the purified recombinant proteins; fractions of monomers, dimers, tri-/tetramers and high MW aggregates; details in the online Supporting Information
[1] = as above
rMal d 1.0108 (apple) = experiment: as above
[2] = molecular target: the molecule itself; experiment: as above

Molecule | percent high MW aggregates [1] | percent monomers [2] | further results
rCor a 1.0401 (natural protein) |  |  | percent dimers (rCor a 1.0401 (hazelnut)): 28%; percent monomers (rCor a 1.0401 (hazelnut)): 45%; percent tri-/tetramers (rCor a 1.0401 (hazelnut)): 18%
Mal d 1 C107S | <0.5% |  | 
rMal d 1.0108 (natural protein) |  |  | percent dimers (rMal d 1.0108 (apple)): 34%; percent monomers (rMal d 1.0108 (apple)): 56%; percent tri-/tetramers (rMal d 1.0108 (apple)): 8%
rMal d 1.0108 | 2% |  | 
rCor a 1.0401 | 9% |  | 
Cor a 1 C4,82,160S (natural protein) GVFSYEDEATSVIPPARLFKSFVLDADNLIPKVAPQHFTSAENLEGNGGPGTIKKITFAEGNEFKYMKHKVEEIDHANFKYSYSIIEGGPLGHTLEKISYEIKMAAAPHGGGSILKITSKYHTKGNASINEEEIKAGKEKAAGLFKAVEAYLLAHPDAYS |  | 93% | 
Cor a 1 C4,82,160S, L115K (natural protein) GVFSYEDEATSVIPPARLFKSFVLDADNLIPKVAPQHFTSAENLEGNGGPGTIKKITFAEGNEFKYMKHKVEEIDHANFKYSYSIIEGGPLGHTLEKISYEIKMAAAPHGGGSIKKITSKYHTKGNASINEEEIKAGKEKAAGLFKAVEAYLLAHPDAYS |  | > 99% | 
Mal d 1 C107S, I113K (natural protein) GVYTFENEFTSEIPPSRLFKAFVLDADNLIPKIAPQAIKQAEILEGNGGPGTIKKITFGEGSQYGYVKHRIDSIDEASYSYSYTLIEGDALTDTIEKISYETKLVASGSGSTKKSISHYHTKGNIEIKEEHVKAGKEKAHGLFKLIESYLKDHPDAYN |  | > 99% | 
Mal d 1 C107S (natural protein) GVYTFENEFTSEIPPSRLFKAFVLDADNLIPKIAPQAIKQAEILEGNGGPGTIKKITFGEGSQYGYVKHRIDSIDEASYSYSYTLIEGDALTDTIEKISYETKLVASGSGSTIKSISHYHTKGNIEIKEEHVKAGKEKAHGLFKLIESYLKDHPDAYN |  | > 98% | 
